Primed or numbered codes have the meaning given here. Ends that are not written are not given here. Cy5.5 = cyanine fluorophore coupled as NHS ester to the lysine side chain; Cy5.5″ = fluorophore Cy5.5, coupled as NHS ester to Lys side chain
Assays:
[1] = target: human cMet on cells (HT29 human colorectal cancer cells; S114 cells; human colon tissue and organoids) (human) (UniProt P08581); assay: confocal microscopy, S114 versus NIH3T3 cells
[2] = target: human cMet on cells (HT29 human colorectal cancer cells; S114 cells; human colon tissue and organoids) (human) (UniProt P08581); assay: confocal microscopy, HT29 cells with control or cMet siRNA
[3] = target: human cMet on cells (HT29 human colorectal cancer cells; S114 cells; human colon tissue and organoids) (human) (UniProt P08581); assay: confocal microscopy, HT29 versus SW480 cells
[4] = target: T1, mouse cMet on colonocytes of CPC;Apc mouse colon (mouse, UniProt P16056 25-1379); assay: ex vivo NIR fluorescence imaging of excised CPC;Apc mouse colon
T1 construct: whole, on cells; Target in tissue staining; also called cMet (mouse colon adenoma / dysplasia)
Experimental: After imaging was completed, the mice were euthanized. The colon was resected and divided longitudinally, the colon was excised, flushed with PBS, and opened longitudinally for imaging with the NIR fluorescence imaging system (Pearl®, LI-COR Biosciences). Images were collected with […] resolution using λex=685 nm and λem=720 nm. Images were analyzed with custom software (Image Studio, Li-Cor Biosciences). The normal colon region with an equal area adjacent to the polyps was used to measure background. Prism software (v6.02, GraphPad) was used to plot data.
After imaging was completed, the CPC;Apc mice were euthanized, and the colon was excised and divided longitudinally to expose the mucosal surface for collection of macroscopic white light and fluorescence images, FIGS. 5 L,M and 13A, B. The polyp locations co-localized on white light and fluorescence images, FIG. 13C. […] Immunohistochemistry was performed with a known antibody to validate increased expression of cMet in mouse dysplasia, FIG. 13E, by comparison with normal colonic mucosa, FIG. 13F.

[5] = target: T2, human cMet on cells (HT29 human colorectal cancer cells; S114 cells; human colon tissue and organoids) (human, UniProt P08581 25-1390); assay: confocal microscopy, S114 cells, reference TLQ*-Cy5.5
T2 construct: whole, on cells; also called mesenchymal-epithelial transition factor
Text: (§1) FIG. 11. Peptide validation with mouse cells in vitro. […] Two-way ANOVA models were fit with terms for 6 conditions and 6 replicate slides on log-transformed data. Measurements were an average of 5 randomly chosen cells on 6 slides for each condition. […] An ANOVA model was fit to log-transformed data with terms for 6 conditions. There were 6 replicate slides per condition and 10 cells measured per slide.
(§2) HT29, SW480, S114 and NIH3T3 cells were inoculated in 12-well cell culture plates with circle glass coverslips to about 80% confluence. The cells were blocked with 1×PBS plus 2% BSA for 1 hour at 4° C., then were incubated with 5 μM peptides for 10 min at RT in the dark, washed thrice, and fixed with 4% PFA for 5 min, washed with 1×PBS, then mounted on glass slides with ProLong Gold reagent containing DAPI (Invitrogen, Waltham, Mass.).

[6] = target: T2, human cMet on cells (HT29 human …); assay: flow cytometry, QQT*-Cy5.5 at 0-200 nmol/L on HT29 cells, 1 hour at 4 °C
Experimental: We assessed the binding affinity of QQT*-Cy5.5 to HT29 cells by measuring the apparent dissociation constant. HT29 cells were blocked with 0.5% BSA, and then approximately 10⁵ cells were incubated with QQT*-Cy5.5 at concentrations of 0, 10, 25, 50, 75, 100, 125, 150, or 200 nmol/L for 1 hour at 4° C. Cells then were washed 3 times with 1×PBS containing 0.5% BSA to remove unbound peptides before analysis with flow cytometry (FACS Canto; BD Biosciences, San Jose, Calif.). Sample means were used to calculate the equilibrium dissociation constant KD using nonlinear regression analysis with Origin 6.1 data analysis software (OriginLab, Northampton, Mass.). […] I₀ and Iₘₐₓ are the initial and maximum fluorescence intensities, corresponding to no peptide and peptide saturation, respectively, and [X] represents the concentration of the bound peptide.³⁴
Specific binding of QQT*-Cy5.5 to cMet was confirmed by adding unlabeled QQT* to compete for binding. […] An apparent dissociation constant of kd=57 nM was measured for binding by QQT*-Cy5.5 to HT29 cells using flow cytometry, FIG. 3C, and an apparent association time constant of k=0.62 min⁻¹ (1.6 min) was measured for the same cells, supporting rapid binding with topical administration, FIG. 3D.

[7] = target: T2, human cMet on cells (HT29 human …); assay: confocal microscopy, HT29 versus SW480 cells, 5 µM peptide
Experimental: FIG. 10. Peptide validation with human colorectal cancer cells in vitro. […] Two-way ANOVA models were fit with terms for 6 conditions and 6 replicate slides on log-transformed data. Measurements were an average of 5 randomly chosen cells on 6 slides for each condition.
(§3) HT29, SW480, S114 and NIH3T3 cells were inoculated in 12-well cell culture plates with circle glass coverslips to about 80% confluence. The cells were blocked with 1×PBS plus 2% BSA for 1 hour at 4° C., then were incubated with 5 μM peptides for 10 min at RT in the dark, washed thrice, and fixed with 4% PFA for 5 min, washed with 1×PBS, then mounted on glass slides with ProLong Gold reagent containing DAPI (Invitrogen, Waltham, Mass.). As positive control, after blocking with 2% BSA for 1 hour at 4° C., A 1:3000 dilution of primary monoclonal rabbit anti-cMet antibody (Cell Signaling Technology, #8198) was incubated with cells overnight at 4° C. […] Confocal fluorescence images were collected using a 63× oil-immersion objective (Leica SP5 Inverted 2-Photon FLIM Confocal). Fluorescence intensities from five cells in two independent images were quantified using custom Matlab (Mathworks) software.

[8] = target: T2, human cMet on cells (HT29 human …); assay: confocal microscopy, HT29 cells with control or cMet siRNA, 5 µM peptide
Text: FIG. 2. In vitro validation with cMet knockdown. […] Fluorescence intensities for D) peptide and E) antibody were reduced with HT29 knockdown cells transfected with sicMet-targeting siRNA. […] A two-way ANOVA model was fit with terms for 6 conditions and 6 replicate slides on log-transformed data. Measurements were an average of 5 randomly chosen cells on 6 slides for each condition.
as §3

[9] = target: T2, human cMet on cells (HT29 human …); assay: confocal microscopy, S114 versus NIH3T3 cells, 5 µM peptide
Text: as §1, §2

T2 sequence (P08581 25-1390): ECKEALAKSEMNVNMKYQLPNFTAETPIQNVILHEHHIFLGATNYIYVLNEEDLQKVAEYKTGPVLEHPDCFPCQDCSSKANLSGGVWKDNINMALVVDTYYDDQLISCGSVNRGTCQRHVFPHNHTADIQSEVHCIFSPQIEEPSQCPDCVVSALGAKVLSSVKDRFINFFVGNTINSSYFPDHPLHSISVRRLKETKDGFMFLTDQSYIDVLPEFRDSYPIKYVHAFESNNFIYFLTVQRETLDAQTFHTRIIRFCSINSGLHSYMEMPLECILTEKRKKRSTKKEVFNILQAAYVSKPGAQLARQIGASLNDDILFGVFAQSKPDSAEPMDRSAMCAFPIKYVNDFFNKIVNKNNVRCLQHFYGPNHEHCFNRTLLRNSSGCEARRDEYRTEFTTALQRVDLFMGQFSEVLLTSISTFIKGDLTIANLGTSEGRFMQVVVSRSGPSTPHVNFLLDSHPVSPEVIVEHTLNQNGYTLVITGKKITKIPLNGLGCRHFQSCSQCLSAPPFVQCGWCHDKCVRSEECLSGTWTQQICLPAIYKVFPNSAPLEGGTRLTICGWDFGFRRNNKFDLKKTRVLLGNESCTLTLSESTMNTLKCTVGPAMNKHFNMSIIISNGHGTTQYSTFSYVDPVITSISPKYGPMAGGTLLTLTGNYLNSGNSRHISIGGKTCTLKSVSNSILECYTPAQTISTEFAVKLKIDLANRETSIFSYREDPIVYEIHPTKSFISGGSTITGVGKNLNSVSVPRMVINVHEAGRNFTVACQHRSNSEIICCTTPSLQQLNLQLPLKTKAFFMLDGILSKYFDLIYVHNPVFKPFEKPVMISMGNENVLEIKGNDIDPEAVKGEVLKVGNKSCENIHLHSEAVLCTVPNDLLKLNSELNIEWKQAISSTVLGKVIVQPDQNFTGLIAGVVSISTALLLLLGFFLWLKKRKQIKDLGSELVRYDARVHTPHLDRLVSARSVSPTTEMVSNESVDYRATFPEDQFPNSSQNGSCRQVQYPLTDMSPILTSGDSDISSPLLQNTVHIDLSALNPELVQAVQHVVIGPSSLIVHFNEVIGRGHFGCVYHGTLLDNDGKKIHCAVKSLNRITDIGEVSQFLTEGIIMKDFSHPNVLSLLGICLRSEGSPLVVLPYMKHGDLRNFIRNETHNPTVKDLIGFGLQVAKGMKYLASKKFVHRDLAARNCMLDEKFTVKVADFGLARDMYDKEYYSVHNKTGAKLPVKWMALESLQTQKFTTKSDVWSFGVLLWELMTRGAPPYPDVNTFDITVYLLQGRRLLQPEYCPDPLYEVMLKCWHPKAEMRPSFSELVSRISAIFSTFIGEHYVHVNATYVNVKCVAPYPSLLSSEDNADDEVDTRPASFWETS
Chain of human cMet on cells (HT29 human colorectal cancer cells; S114 cells; human colon tissue and organoids) (human) (P08581 25-1390): as above
T1 sequence (P16056 25-1379): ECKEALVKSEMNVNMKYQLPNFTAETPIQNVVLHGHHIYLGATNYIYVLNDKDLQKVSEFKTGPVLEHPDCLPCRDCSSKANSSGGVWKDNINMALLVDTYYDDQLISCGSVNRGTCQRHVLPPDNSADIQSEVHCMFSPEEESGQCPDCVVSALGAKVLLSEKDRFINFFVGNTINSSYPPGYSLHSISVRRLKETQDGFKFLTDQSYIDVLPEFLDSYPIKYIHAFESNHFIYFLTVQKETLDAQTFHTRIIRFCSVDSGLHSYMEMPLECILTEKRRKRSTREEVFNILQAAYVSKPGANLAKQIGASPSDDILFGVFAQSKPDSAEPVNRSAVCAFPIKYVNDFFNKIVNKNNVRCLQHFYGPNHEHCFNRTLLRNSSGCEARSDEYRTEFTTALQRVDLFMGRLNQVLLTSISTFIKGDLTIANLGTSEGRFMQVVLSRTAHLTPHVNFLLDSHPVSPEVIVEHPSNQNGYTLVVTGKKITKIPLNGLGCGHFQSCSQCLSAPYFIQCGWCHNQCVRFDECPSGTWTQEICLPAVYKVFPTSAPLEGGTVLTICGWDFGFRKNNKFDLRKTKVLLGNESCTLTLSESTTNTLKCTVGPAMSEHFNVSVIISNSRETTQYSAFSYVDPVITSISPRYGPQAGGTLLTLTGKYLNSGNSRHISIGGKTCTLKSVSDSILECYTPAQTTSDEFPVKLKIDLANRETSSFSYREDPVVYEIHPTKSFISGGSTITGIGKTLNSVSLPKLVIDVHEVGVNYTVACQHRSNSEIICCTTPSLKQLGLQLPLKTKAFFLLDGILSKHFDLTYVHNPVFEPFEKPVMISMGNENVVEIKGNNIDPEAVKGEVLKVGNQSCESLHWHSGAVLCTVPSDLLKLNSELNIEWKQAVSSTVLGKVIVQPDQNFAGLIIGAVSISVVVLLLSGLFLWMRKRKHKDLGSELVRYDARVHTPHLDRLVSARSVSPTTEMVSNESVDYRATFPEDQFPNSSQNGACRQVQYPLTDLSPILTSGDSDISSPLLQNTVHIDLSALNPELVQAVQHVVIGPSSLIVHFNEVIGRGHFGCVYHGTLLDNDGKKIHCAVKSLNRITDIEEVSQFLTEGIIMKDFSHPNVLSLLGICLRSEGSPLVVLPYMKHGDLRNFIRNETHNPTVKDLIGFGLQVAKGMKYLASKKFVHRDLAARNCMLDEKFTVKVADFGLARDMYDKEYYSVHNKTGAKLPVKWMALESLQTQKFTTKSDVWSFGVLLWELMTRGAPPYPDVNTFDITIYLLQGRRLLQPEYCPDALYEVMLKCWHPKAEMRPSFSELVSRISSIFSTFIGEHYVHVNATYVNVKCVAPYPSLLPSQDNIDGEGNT

fold change of mean intensity, S114 (cMet+) versus NIH3T3 (cMet-) cells [1]	fold reduction of fluorescence intensity with knockdown of cMet (siCL versus sicMet HT29 cells) [2]	fold change of mean intensity, HT29 (cMet+) versus SW480 (cMet-) cells [3]	binding result [4]	fold fluorescence intensity versus TLQ*-Cy5.5 [5]	Kd [6]	fold change of mean intensity, HT29 (cMet+) versus SW480 (cMet-) cells [7]	fold reduction of fluorescence intensity with knockdown of cMet (siCL versus sicMet HT29 cells) [8]	fold change of mean intensity, S114 (cMet+) versus NIH3T3 (cMet-) cells [9]	fold change of fluorescence intensity with knockdown of cMet (siCL versus sicMet HT29 cells) [8]	Molecule
6.7 fold	4.1 fold	4.3 fold	–	–	–	–	–	–	–	primary monoclonal rabbit anti-cMet antibody (Cell Signaling Technology, #8198) detected with AF488-labeled secondary antibody
–	–	–	binds	7 fold	57 nM	2.1 fold	2.9 fold	2.4 fold	–	QQTNWSLGGGSK(Cy5.5)-NH2 (Linear monomer made by Fmoc solid-phase synthesis; m/z 1827.67; also called target peptide)
–	–	–	–	–	–	0.85 fold	–	0.72 fold	0.96 fold	TLQWNQSGGGSK(Cy5.5″)-NH2 (Scrambled control of QQT*-Cy5.5; also called TQL*-Cy5.5) [TLQ*-Cy5.5 (scrambled control peptide TLQWNQS linked through a GGGSK linker to Cy5.5)]

Source: patent US20220193271A1 (REGENTS OF THE UNIVERSITY OF MICHIGAN, published 2022)
